Measurements from a protein production outcome set (Wang et al. 2014).

Assay: label from the status in PepcDB records

Sequence | protein production
MAGRQPGGAAMKALLHGIAEGNGRTLRNLLGLLIFIGGGYLLGRHALLLAELNLPAPIVLALKGGLLCAFGTALGAMPVLVVKTMPARLSDALLGFGAGVMLSATAFSLIMPALSAAGDLGYSKFGAGFLVSFGLAVGVMGLFILGRLMPDVHPGCEGAPLSGGIPPRILLFVTAIVLHNIPEGMAVGVSAGAGLDEANGLALGIALQDVPEGLVVALVLAGVGMSRFKAMLVGAASGLVEPLFAVLCAWLVGLSALLLPWGLAAAAGAMLFVVTHEIIPESHRQGHAAEATLGLVFGFCLMMVLDTALG | failed
MAGSHAGTLRVLQAVDTELTADSVEWCPVEGYQHLLACGTYQLRAPRDQPALDGSEPQVRLGRLYLFSFSEHNTAKPLLEVQRRDSSAVLDMKWCHIPVSGHVLLGLANASGSIGLLRLMECENNSYTLQPISSLALDENCLSLSMDWSTGKSVRAREQPLKIISSDSKGQLHLLMVNEGTAELQLVASWPAHHFEAWIAAFNYWQTELVYSGGDDCLLRGWDTRMLGTPVFTSKRHCMGVCSIQSSPHQEHILATGSYDEHVLLWDTRNIRQPLADVPVQGGVWRLKWHPVHHHLLLAACMHNGFKILNCQKAIEEKQDITVLTSHEMPNSLVYGADWSWLFHSMKPTPTWFFDQNDMGVKAADHSSLKVTEEPPIHSQEQTMDRQVEGPANAHTRAELKASLLPLTEDMKNSKDCSSSSVKTRDLSHCSGGQSFDNSLLATCSFYDHVLHLWKWETNQARTLCSGTGCDLGSADH | failed
MAHEGEQFIKDIQREYVDFLDDEEDQGIYAGHVKDMIAEKSKRLIVNVNDLKRKNPQRALGLLSNAADEQLAFGRALKEYASTVDPGYAKMHEDLFVGFEGCFGNRHVTPRSLTSIYLGNMVCVEGIVTKVSLIRPKVVRSVHYCPNTRKVMERKYTDLTSFEAVPSGAAYPTKDEDGNLLETEYGLSVYKDHQTLTIQEMPEKAPAGQLPRSVDIVCDDDLVDRCKPGDRVQIVGSYRCLPGKRGGYTSGTFRTVLLANNISLLSKESNLDISREDIMLCKKLAKNNDIFELLSKSLAPSIHGHAYVKQAILCLLLGGVEKILPNGTRLRGDINVLLIGDPSVAKSQLLRYVLNTAPRAIPTTGRGSSGVGLTAAVTTDQETGERRLEAGAMVLADRGVVCIDEFDKMSDIDRTAIHEVMEQGRVTISKAGIHASLNARCSVLAAANPVYGRYDQYKTPMENIGLQDSLLSRFDLLFVMLDVIDSDVDQMISDHVVRMHRYRNPKEADGEPLSMGSSYADSLSFVSSSEEKKDTEVYEKYDALLHGKSRQRHEKILSVEFMRKYIHIAKCMKPKLGEQACEAIANEYSRLRSQEAVETDVARTQPITARTLETLIRLSTAHARARMSKSVTIDDAHAAIELVQFAYFKKVLDKDRPSKRRRNSGSDAEDDNGEASSQRSPSRRSKRTRTATVGADSDEEDIEPPQPDAGDLTRRETRRSLPARSVAMLMASPSSEEQSVATSTTEPAIISDARLGEFKNNLQRLFREAREQSLALARITTAINVGSQEPFTAGEIEAAVHRMTEDNQIMVADDIVFLI | failed
MAHPPQIRIPATYLRGGTSKGVFFRLEDLPESCRVPGEARDRLFMRVIGSPDPYAAHIDGMGGATSSTSKCVILSKSSQPGHDVDYLYGQVSIDKPFVDWSGNCGNLSTGAGAFALHAGLVDPARIPEDGICEVRIWQANIGKTIIAHVPVSGGQVQETGDFELDGVTFPAAEIVLEFLDPSDDGEDGGAIFPTGNLVDDLEVPGVGTFKATMINAGIPTVFVNAEEIGYRGTELREEINGDPQQLARFERIRVAGALRMGLIKTPEEAATRQHTPKIAFVAPPRDYRTASGKLVAAGDIDLLVRALSMGKLHHAMMGTAAVAIGTAAAIPGTLVNLAAGGGERSAVRFGHPSGTLRVGAEASQANGEWTVTKAIMSRSARILMEGWVRVPGDAF | not failed
MAHSPLVSIVVPAHNAEATLARALDCLLDQEIVDWEAVIVDDASTDRTPAIIAGYVEHDARFRTLRSSTSSAAGARNSGISTARGHWLMFLDADDWVDASFLAKMLAALKAAPDAVAAYCGSRRVMPDGELTPSSISTEVAIQPFETFARQCAIRTHALLVDREAIVGLGGFDVSLRTCENWDLWQRLAHLGKRWVMVDEPLAFYRVSPNSLSRNSTQMLADAEIVIARGFSADPRVSHPASGQANGAISANGGTASEALAWFALWNAASDCGRGSRSIDPQALRALPAGRKWAREIAEVAIDGLMVGSLSVPAQLAARWGRFGGPLTELIIELGKVWDNPAAGRRVQYQLEQMLLDADDLAAPRRLARTLGIRVDVRNPNAIELPEGIDRIYAYLMMDGQIEAVVQFGVLGTVTRDHWIELIQNVVPAERLADSTARLAGRSTVPQEGAGADTSNTFAAEALLFTAERRSDPDSHFGKLAQLTAEARELVRSSAEPEQPPAVPRRARAADTNDRTAFWNSYFATEDPWNYGSLYEQEKYQRQLEILPAGPIGRVLELACAEGHFTRQLAPRVSHLTATDISAIAIERARARCGDQPNIEFGVLDFAADMLPGEMDLIVCSEVLYYLDDLADLRRITKKFTEALAPGGSFITAHAFVLRDNVERTGFDWNTFGAQAISETLAATEGLVLEQSIQTELYRIDRFRRLSPDDLVTEPMIDHAPIRAQIEIGVARNIIWGGARALRRDVARNEQRQRVPVLMYHSVSDDGPAALARFRLTPAGFGSQMAWLRANGFHAINSEQLEGCIANRQPFVGRPVLITFDDGFQNFADHAWPTLRANDLTAEVFLVTDLVGKGAQWDAHNGPPTQLMDAGTVRRLAGEGAFFGSHMATHRAIDGLSSSDLAAELLRSRMFIERWTGRPTTAFTAPFSVTDRRLGRLARECGYRIGFGARHGPADLDCDLIDLPRIEIRGDRSLDDFVATVEAVLKER | failed
MAHTVYENARIYTVNDQQPTASVLVVEQGKIIYVGGNDGAKQFKATAAELFDLEGKTVLPGFIESHAHPLEHHHHHH | failed
MAIARALRDELSFGAVSRRENPVSAHIPYSRHVSDEVIKTQDGMLMSFVHMSGLCFETIDIAEINSRLLGRNDLIRGLANSRYAIYSHIVRREVKPAIESSFENKFCQELDQRYTAALRTQRMFVNDIYLTIVRRELQGTVGTADLVIRKLLGRRAADGRSSSEERALIELTDVMKAVRESLQAYGARVLTVVKRNDVWHSEPLEFLVQLVNGGFPRPMALPRMKLAEALATKRLFFGPNALEIRGAFPGETRYGAIISVGEYPSITGPGMLNPMLKVPHEFIVTQSFAIIDKPQALTQMERVGRKIDMSDEADSIVGDQLGEARDELLSSEALYGLHHLTVLCLGKTMDDVARCVTDVGTALTEVSALWVREDLNCEPAFWATLPGNFAYVARKSMISSKNMAGFSAFHNYPSGRTGGVHWGMPISVLETTSQTAYFFNFHVRDLGNFTLNGPSGSGKTVLLGFLAAQAQRITPRPKLVMIDKDRGLDIFVRSLGGRYEVLKAGEPSGFNPLRLPDTPRNREFLFQLFSFILRRSDGYAHSTREEQVIRNAIAQVASAPPEGRTMEEFAELLRGAMRAGDDDLYSRLQPWMRPDQRGWLFNNAEDSFSMSSIFGFDMTSVLSDATTSTAALLYIFHRIEELLDGQPVMIFLDEGWKLLDNDIFSYFIKDKLKTIRKLNGIIGFGTQSAADIVKSSIANTLIEQTPTNIFFPNPKADEESHRAFGLSEREIKWIRETPPEARKFLIKHDQDSVIARLNLGAMPDAIKILSGRIETVQELDALRARVGDDPDVWLPVFLGRDPE | failed
MAIEGKTTDVANKRIRLGMVGGGSGAFIGGVHRMAARLDNRFDLVAGALSSTPEKSLASGRELGLDSERCYGSFEEMAEKEALREDGIEAVAIVTPNHVHYPAAKAFLERGIHVICDKPLTSNLEDAKKLKDVADKADALFILTHNYTGYPMVRHARELVEAGALGNIRLVQMEYPQDWLTEAVEQTGAKQAVWRTDPAQSGVGGSTGDIGTHAYNLGCFISGLEADELAADVHTFVEGRRLDDNAHVMMRFKPKGGKQPARGMLWCSQVAVGHENGLKIRLYGDKAGLEWTQADPNYLWFTKLGEPKQLITRGGAGAGAAAARVTRIPSGHPEGYLEAFATIYTEAAHAIEARRTGSALDKAVIYPTVDDGVKGVAFVTACIESGKKNGGWVKL | failed
MAIFMSYVLLGLSLAAPIGPVNAAQLDRGIKNGFFHAWLVGLGAITADVIYMLLVFFGLVHFLQLPFMQTFLWLFGFFVLVYTGIETISSVNHLKEATNMRTSETYRKSFIYGFLMSISNPLTILFWLGIFGSVLAKTASVYGPAQLVFYSSAILIGLLLWDVAMAGIASGARHMLTPARLKIVSILSGLTLIGFGVYFGLQACRVLFG | failed
MAILHSVSYGTSDNTLVFIGSLGSTTDMWLPQLDALHKDFRVIAVDHRGHGLSELIEGTPTVADLAQDVLDTLDDLGVGNFGVIGLSLGGAVAQYLAATSDRVTKAAFMCTAAKFGEPQGWLDRAAACRENGTGSLSEAVIQRWFSPTWLENNPASREHFEAMVAGTPSEGYALCCEALATWDFTDRLGEITVPVLTIAGADDPSTPPATVQIIADGVGGESRAEVLSPAAHVPTVERPNEVNELLAQHFA | failed
MAIMRHGLAASVMGTALAMVVAVLPAGCANGQVGEANRPGTTPPSEIALAPSGLGSYLAARHAEAEGDTEAAAAFYLTALADDPDNLNLLRRAYFFNAVEGKVGEAAELASRLMVSDPTATIAPLVISADLAKRGQMREAATLINGQNRQGLNSFLVPVALAWARAGAGDAGGAMTALDELSKNAGYATLRALHGALLQEQLGNKAKAGELYEAYVKGGERPSLRGVQLAGGFFVRTGQAARARALAADYSQRFPDSLLLDNAVAGFAEGGTPPAPEVGTAKDGMAELYYGTASLLADNDLQTATMFNRLALHLRPDFPLAQLLLGQLLAGQNRHDDAIAAYRGIESHDTLMLAAGLAEAESLRAQGKIDDAVVEFDKLAAHFPSRPDPLIEKGDLLRQDQRFAEAATAYSAAIARMGAPDPRHWAVYFGRGVAYERTDRWPLAEQDFQTALRLNPDQPFVLNYLGYSWLDNGINVDQAKQLIERAVAQRPKDGYIIDSLGWAHFRLGEYAEAVGILERAIHETPDDATINDHLGDAYWMVGRRLEARYQWERALSLADDADLSASIQKKLDTGLSPPSPVVPRSAGRPAERQPTSATP | failed
MAINIIEYNRSYKEELIEFILSIQKNEFNIKIDRDDQPDLENIEHNYLNSGGQFWLAINNHQNIVGTIGLIRLDNNMSALKKMFVDKGYRNLKIGKKLLDKVIMTCKEQNIDGIYLGTIDKFISAQYFYSNNGFREIKRGDLPSSFPKLDVDNRFYYRNLKD | not failed
MAIRLTHLRKPLAYSRSFDVCIPFFRSISSFEAVEKAIKCAVETKEYLRIPELVVSLKEPYQNSTLFSFLSAFQRHHRIRVIDEILQSFVPVRPRSLPKIVYSSLLTYCLQSSDPLPLSFAILQRTLRSGCLPNPQTHLLLSDAWLERRRGSQSVADIINEMKLIGYSPDTGTCNYLVSSLCAVDKLDEAIKVVEEMSAAGCIPDVESYGAVINSLCLARKTTDVVKIVKEMVSKAGISPRKGMLTKVAAALRANREIWKAIEMIEFVESRDYPVEFESYEVVVEGCLEVREYILAGKVVMRMTDRGFIPYIKVRQKVVERLINIGEWKLACTVRQRVSELRS | failed
